No end group written: not given here.
Molecular target: T1, recombinant chicken GHRH receptor (chicken)
T1 construct: Full-length cloned receptor; also called cGHRH receptor; cloned chicken GHRH receptor
T1 chain: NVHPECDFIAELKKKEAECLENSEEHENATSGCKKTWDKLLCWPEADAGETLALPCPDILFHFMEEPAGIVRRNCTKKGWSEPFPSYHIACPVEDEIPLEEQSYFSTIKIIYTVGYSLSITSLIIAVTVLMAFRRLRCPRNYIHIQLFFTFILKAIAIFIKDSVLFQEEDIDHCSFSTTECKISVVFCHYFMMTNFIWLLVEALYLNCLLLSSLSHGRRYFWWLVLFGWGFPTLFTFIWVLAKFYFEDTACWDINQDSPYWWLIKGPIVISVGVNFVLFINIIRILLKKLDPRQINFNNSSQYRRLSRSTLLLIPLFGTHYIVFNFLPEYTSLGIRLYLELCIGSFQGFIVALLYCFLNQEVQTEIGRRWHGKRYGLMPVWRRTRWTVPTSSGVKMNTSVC
Test: competition with labeled hGHRH at recombinant chicken GHRH receptor

- binding result: no binding
B1: chicken GHRH polypeptide (asparagine^21), previously reported chicken GHRH (ligand)
peptide: HADGIFSKAYRKLLGQLSARNYLHSLMAKRVGGASSGLGDEAEPLS
modifications: not fully specified
notes: also called cGHRH(Asp^21); published polypeptide

— patent US7078514 (dated 2006)
